Laboratory results taken from the domain aggregation screens of Martell et al. (2025).

Experiment: soluble fraction after stress (log2 fold change); higher = more stays soluble; pooled small domains, quantitative proteomics
Settings: stress: 75 degC
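Note: 20 min heating vs room temperature control held 20 min.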

HMQISGSEELEKIVQTVLEKNTDVVEEYKSGKTKVFAFLMGQVMKESRGKANPRLAKDILEKFLA
soluble fraction (log2): -0.429

HMQITAPVQKIDGVEYYMHKVEQGQTLYSISKLYNVGVKEIQKANQLGTEGIQLGQVLKVRKGG
soluble fraction (log2): -0.2

HMQIYLTPEQFKIIDFMEQMGKITVKDVMDILNIPKRTAQLHLQKLKTLKMIAQTGKGPSSAYLL
soluble fraction (log2): -1.11

HMQKDAYVPDIISKLKSSRMIVVEGTIYPLLTRLKNTGLLSYRWEESLQGPPRKYYSITEQG
soluble fraction (log2): 0.268

HMQKDYKTRLQEYYAKVGKKVNYMDSSTGPDHDKKFQTQVFLDKEIIGVGEGKSKKSSQQEAAKQALEKI
soluble fraction (log2): 0.267

HMQKFINQEHEKAYNLMLEKDYQQALKIFDDLIYLFPNEANLLSDRGVIFIHLNKKEAALQDFDQAVF
soluble fraction (log2): -1.97

HMQKIEKVDYGTFLKMIENGEIDQVNLTEKKISFTTDKDAETVYETGRVEDPNIVDRLYQADVEFTQEI
soluble fraction (log2): 0.598

HMQKIENYDQFVQAFKRLSGLDLKLYKENQMKRRINNFINNHGFKENYDQFFQAITGNKELYNAFFKHLTI
soluble fraction (log2): -0.527

HMQKKYLAVKEYLLEQINSGAYQPDEPIPPEREMAAMLGVNRMTLRRAVEELMYEGLLIRKKGSGTFLTK
soluble fraction (log2): -2.03

HMQKLSPKQRRGNIIELIKENPTITAKNISTIFNLNQRTIERDLAKLTEEGYIKYEGSSKDGKWVFL
soluble fraction (log2): -0.134

HMQKNKSVLFKDIVIAFNQNPKKLFNYKQLAADLDIHSEAERMLISQLLNDLKDQNFLEEVERGKYKLKL
soluble fraction (log2): -0.766

HMQKPIKPVKMHTVGPKENLSSIGRMYEVNGRVLANYNNIDYDKGLTIGQVLKIPPKGTTLEQVT
soluble fraction (log2): 0.853

HMQKTIDWSQVDKEQYLSAMERSPVNDLEIKAILAKALTSDINNRELFMKGLDHSYYFEGYQLFKSE
soluble fraction (log2): -0.526

HMQKTQVVEVAGKSYQLTKMDARTGSYVAFKVAGVLAPSGGKTAEMAAALMGMPRKDFDELQSLLLRTV
soluble fraction (log2): 0.025

HMQKYSTIIGVIELRQSGIGYRTTKKRYNIGNSTVTLIMNRFHELGLSLEELKAMPPKKVEEAFYPPE
soluble fraction (log2): -3.22

HMQLASILDDIPGIGKKRKENLLTHFGSFSKIQSADIDALAEVPGISRDLAETIHTYLKTHQ
soluble fraction (log2): -0.0246

HMQLDLSDPSKNKLDSIVSLPIKSLKAVEANGEILFMSENGRFVLRGQLYDIWYKDTLDTSAQIQDAATRI
soluble fraction (log2): 0.331

HMQLDLTSTLDHMYKQMRNDHPRALLMAVEKEMVLRALKETDGNQLRASDILGISRSTLRKRIEEFDINS
soluble fraction (log2): -1.24

HMQLEPLITSVIPVNFAKAGEVATTIKGKEVGLVSDRGSITAESRTNVLIVKDIKKNVDDISAMVKRLD
soluble fraction (log2): -0.00331

HMQLGEEAGDELVAIVRSVINDNDKALADYLAGKSSALKFLLGQVMRQTKGRADHALVQSLLEAELEAL
soluble fraction (log2): -0.0341

HMQLHDTMKRVYEALDISEQKLAESLGLKLSTIINWQKNGISKIGINKLNQTFGLDMQWILTGQGEPFI
soluble fraction (log2): -0.0293

HMQLLDIGSAVRIIREPYFGRLGTVVELPPELMEIESGTHARVLKAKLDDGTVAVVPRANVEIIVE
soluble fraction (log2): -0.785

HMQLNNTDELEKIILKILENNPKQVDQFLAGKQKLLGFFVGQAMRATSGKANPKTVNDLLEKFLSK
soluble fraction (log2): 0.027

HMQLPDLDEIRQMRKRLDLSQRELAALAGVSQSLIAKIEKGSIDPSYDNVRKIFNAFENILKKRALE
soluble fraction (log2): -0.119

HMQLPIGDVKLSVEHLSSGTALQDISFEVHRGEIFGFLGLVGAGRSETAETIFGLREKTDGKISIDGTVL
soluble fraction (log2): -0.0579

HMQLPTNAAAILRYLSSGAVKGVGSATAVRIVEKFGEETLNILEQDPLRLAEIRGISRDKAKKIGEDFASQ
soluble fraction (log2): -0.322

HMQLSMLPYGFARRHGVLLVEQDEQPTLIHRAGITATVIAEVQRVAGQIDAWRLVDDARFDQQLAEVYRD
soluble fraction (log2): -1.33

HMQLTPAQHAILAYAIEHTGGKIEWFPDNIKGGARTKVLEGLFNKALITRDSTDWFVAAEGYDALGR
soluble fraction (log2): -0.949

HMQLYSLEVLSKKKVDLIENNKNLINLYFNKENGEYSYRLIFKNRKELYQVKDTLDNSSDVVSIKLDL
soluble fraction (log2): -2.27

HMQMGLNEAYRVLHVSPDAPWREVQSAYKERMAKSHPDKVSHLGEELQEKAKELTVEINKAYNTIKRYKK
soluble fraction (log2): 0.47

HMQMKDRILRIMEHEGISPSKFAEEIGIQRSAMSHIISGRNNPSLDVLTKIMQRFTYVDTDWLLFGKGSMV
soluble fraction (log2): -1.99

HMQMPDLTGKPRAEAVTTLAALGFTDVKFLDASAGDEPLDYVADQVVRTSPEAGAALASGQQITIYLAT
soluble fraction (log2): -0.203

HMQMSDTSMIRDLVLQVLAENPQSIEDFKNGKDRAVGFLVGMVMKKSQGKANPQITNQMIVEELKK
soluble fraction (log2): -0.228

HMQMSERENTILLTKRYIERGEYERAMNLLDSLLIKNALDEEALAMIDEIIALKAGASLQDFPRY
soluble fraction (log2): -0.797

HMQMTTPQMVPLFTDLSVDDSASIIKDLERQAVPYQIKSDGAIIMVPKDKVTRLRMKLAESGLPK
soluble fraction (log2): 0.488

HMQNDDLTKLDGIGPYIEQRLNDIGIYNYEQLSKLNTEDIQKITELIDFFPGRIERDNWVSQAQLLKI
soluble fraction (log2): -0.515

HMQNDILIQADEIVGDYFDMDKEALKMNKQAVIADIEKRQATAQGDEASALHYAKQKVENEFEDDGSQKD
soluble fraction (log2): 0.109

HMQNKFLDIVGEIEVKAVDYYLLKDTSGLVIKFPKNLVFANGLKIADNKIGLTVSLYGAWVHEET
soluble fraction (log2): -1.08

HMQNKYIIKQGNSGELVEVLQELLNLKQDGVFGPQTKKAVIAFQQKHKLVADGIVGPMSWRKLNFNPEELF
soluble fraction (log2): -2.36

HMQNLISSDEAKNIALQHANLTDNQVTFIKVSKDYDDGIHIYEVEFHYNNREYNYDINAINGTILSYEQ
soluble fraction (log2): -1.34

HMQNNKITIYISGAVNRPGIVTIESDKRLYDAVELLGGTTKEADLNGVNLSVRLEDEQHYIIPKIGEA
soluble fraction (log2): -0.432

HMQNNWFYEENGQRKGPVSENEMVQFIKSSVISHGTSVWKQGFPDWLKVENTDLRVHLDNSAP
soluble fraction (log2): 0.105

HMQNREQNILDGKSILDKELKRVGLLNQSAAIMAQEMKFNSQDDLFAALGSGATRIGQIINHLQKQS
soluble fraction (log2): -0.00272

HMQNSMTTTPDVVGKTGTFAEQMLKAANLNVQFAGDSSGKVVAQDVEAGTSAAYGTIITLTMDS
soluble fraction (log2): 0.693

HMQNVKIKAEVKGEVISPGVYELDEESRIQDLIDASGGFSDKAYYDNINLSMKLKDEMVLVVYDKDKI
soluble fraction (log2): -0.271

HMQPADYSDLYAAAKSAGEADMRAAFALTDKQERTAAVNAARETIKAALSEEQLADANLGSALKKLEAGV
soluble fraction (log2): -0.122

HMQPASPELNNQEKKVLQALPENEVIHIDELSDKIQIPVGELLTVLLSLEMKETVIQEPGKFFRRR
soluble fraction (log2): -1.29

HMQPDFLDAKASLALLGVRPQTLYAYVSRGAIRSVPQPGTKAHLYSRSDIERVMARAAARAG
soluble fraction (log2): -1.34

HMQPDYRVLYSNFSDKDGGAIVAALEKMNVPYKFSEGGSAILVPAGQVHQARLKLAADGLPK
soluble fraction (log2): 0.0648

HMQPLGHDLTERELDVLALMVTGMNNSEIADKLVVSRSTIKYHVSNILSKLQATSRTEAVAYALQQNLVH
soluble fraction (log2): -2.51

HMQPQIDFEIDVEVRASSLRIVAAPNSDVLVATVGRGEHVVQLTYPKDGWVMIRTADDRVGFVPESLLL
soluble fraction (log2): -2

HMQPQYSVLFSNIEEKDGGSIITLLQQGNVPYKVENGGTTILVPANRANELRLTLAAQGLPK
soluble fraction (log2): 0.449

HMQPVLSDAEVNDLKNIAGGERGYNQLMDWAGNNLTAQDAKSYDDVLATGNKAAISFAIKALMGQYEDAN
soluble fraction (log2): -0.0478

HMQQEAVNLVQSRGQQAIEPVHIMQGVMKVGENVTNFIFQKLGMNGQQVALVVDKQIDSLPKVSGGEPYL
soluble fraction (log2): 0.124

HMQQEAVSGKLLQLDLAKKEGRLSTDLGREVLFHIPKPELFVHLSVGQRIIIKLDAGQEAVGV
soluble fraction (log2): -0.178

HMQQELDAFKLLITVSGVGPKAAMAVLSVLPPDRLSIAVSSGDVKSIQSAQGVGKKTAERIVLELKDKM
soluble fraction (log2): -0.906

HMQQIEIEEPITVKNLSAVAGLKASEIIAKLMKLGVMSTINQVMERQHAEEIAGEYGFELVVK
soluble fraction (log2): -0.132

HMQQISDPQVLRPMAEEVLHQSQKVVQDYKGGNKNAFHALVGQMMKKTQGKGNPQVIGQVLSELLDE
soluble fraction (log2): 0.98

HMQQKNWIVRDGDGKIYGPFTTEQVLVQIDRGYFVGGEEVALYPGGRWIAISGAPEFYDRLLDALAMEG
soluble fraction (log2): -0.995

HMQQQLLHIVFGGELKDVTGIEFEDLSKMDFVGAFSNYKDAYDAWKSAAQRTVDHAEMRYFILHAHKLL
soluble fraction (log2): -6.11

HMQQRTVEHVDTAVEALALSIGERAGVDLPYMAHLTGKTQEDLIEDLTGVIFPVPGTEPLRYVTADDYLS
soluble fraction (log2): 0.181

HMQQSVSSLVRRYMLQTIPGINFSLKSTALALNMSDRTLQRKLLSENTSYQIILDDVRKELAIKYLKE
soluble fraction (log2): -3.23

HMQQVIQSGQKVQLMATDGSFQVSAEGVALKNGSVGEVIGVRMPSGRVISGVVSASGAVEVR
soluble fraction (log2): 0.125

HMQQVLGDVNEDDKVDFLDAIVVLRHDAEIIQLTDNQMKAAEVNKDGKVDFLDAIMILRYDAEIIGS
soluble fraction (log2): -0.0321

HMQRDDMQIDRLIQIVFLLLSRNNLTAKQLAEELGVSTRTIYRDINILSVAGIPITSQKGYGGGLSLLQG
soluble fraction (log2): -0.608

HMQRDELRYDQFLTALQNKEFTQLNVRFDDYTYLVTGTFQSGRPFSTRGPVSEEFIRLIESSGVQVTWLPM
soluble fraction (log2): -1.65

HMQRDERYVYHTVLAGETIYSLSRKFNVTMDELLESNPALRSGVLTTGSEIRVLKAQMAQNFD
soluble fraction (log2): -1.25

HMQRQGTVATQQTPLNIRSQPSLSAQVIGQAPKGATVAILGESGDWYQIRYQNITGYSSKQYI
soluble fraction (log2): 0.0804

HMQRSVEDVFVQLRNGMDTYDMTQIEDALRILHGMELSTAQRDLLDKVQEAYNDLEYETGAALLAGFERIK
soluble fraction (log2): 0.134

HMQRYFINEPVPEDQRLVLPKDIAHHLVDVLRAEQNDELEVALNDQKVYLARLISLNPATVELQSDLG
soluble fraction (log2): 0.465
